One series deals with T1, VEGF-A165 (Homo sapiens).
T1 chain: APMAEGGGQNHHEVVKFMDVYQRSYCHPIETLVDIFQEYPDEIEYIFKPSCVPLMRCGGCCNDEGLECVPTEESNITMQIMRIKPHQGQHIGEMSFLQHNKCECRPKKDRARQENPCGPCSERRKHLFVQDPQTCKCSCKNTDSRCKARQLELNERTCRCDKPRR
The experiment in a line: cell_activity; KDR phosphorylation; >50% at 100 nM with VEGF-A121. The settings on record: tags: glycan-biotinylated for SPR/FRET/AlphaLISA; Acro BioSystems, R&D Systems; chain copies: 2 (inferred). On the procedure: (§1) Briefly, HEK293 cells engineered to stably overexpress KDR were plated overnight in collagen coated 96 well plates at 50 k cells/well. Aptamers in SB1+ (40 mM HEPES, pH 7.5, 125 mM NaCl, 5 mM KCl, 1 mM MgCl₂) were heated to 90° C. for 3 minutes and allowed to cool to room temperature for a minimum of 10 minutes. […] 15 μL of VEGF-A was added to 15 μL titrated aptamer in a polypropylene plate and diluted to 300 μL with TS buffer (10 mM Tris pH 7.5; 100 mM NaCl; 5.7 mM KCl; 1 mM MgCl₂; 1 mM CaCl₂). The aptamer/VEGF-A mixture was incubated at 37° C. for 30 minutes, after which 100 μL was added to the cells for 5 minutes at 37° C. in 5% CO₂. Treatments were aspirated from cells, and cells were lysed with 100 μL cold lysis buffer [20 mM Tris-HCl, pH 7.5, 150 mM NaCl, 1 mM EDTA, 1% Triton X-100, 0.5 mM sodium orthovanadate (freshly prepared), 1 mM PMSF (freshly prepared), lx protease inhibitor cocktail (freshly prepared)] on ice for 10 minutes. Plates were centrifuged at 4000×g for 10 minutes before transferring the cell lysis to the AlphaLISA® assay plate.
(§2) To perform the AlphaLISA® assay, 10 μL of cell lysis was transferred to a white low volume 384 well Optiplate (Perkin Elmer). […] 10 μL of this reagent mixture was added to the assay plate that contained 10 μL of cell lysate. The assay plate was sealed and incubated in the dark for approximately 2 hours, then was read on a Biotek CYTATION™ 5 plate reader using the Alpha 384 well optical cube. Percent inhibition was calculated by subtracting TS buffer background from each value and normalizing to VEGF-A only controls. The values were fit by using a four-parameter non-linear fit in GraphPad Prism Version 7.0.
In general terms: Bead proximity is the source of the signal in Alpha formats.

The target in series [1] is T2, VEGF-A121 (Homo sapiens, UniProt P15692 SEQ:1-121). The experiment in a line: cell_activity; KDR phosphorylation in HEK293-KDR. The settings on record: tags: glycan biotinylated in TR-FRET; Biolegend in the cell assay; chain copies: 2. Here is the method: as §1, §2
Series [2] addresses T2, VEGF-A121. Nature of the series: competition; TR-FRET; also no pKDR inhibition at 100 nM. The following applies: tags: glycan-biotinylated for SPR/FRET/AlphaLISA; Acro BioSystems, Biolegend; chain copies: 2 (stated). On the procedure:
(§3) Briefly, for competition TR-FRET, 2-fold dilutions of thermally equilibrated aptamers were made in TR-FRET Buffer (50 mM MOPS, pH 7.4, 125 mM NaCl, 5 mM KCl, 50 μM CHAPS, 0.1 mg/mL BSA, 1 mM CaCl₂, and 1 mM MgCl₂). 5 μL of aptamer or control solution was added to a 15 μL mix of glycan biotinylated […] (5 nM final), ALEXA FLUOR® 647-labeled Aptamer (30 nM final), and Streptavidin-Eu (Perkin Elmer; 2.5 nM final) in a black wall low volume 384 well plate (Greiner). For control, 5 μl of 1000-fold excess of unlabeled parent aptamer or 5 μl TR-FRET buffer alone was added to the mix of ALEXA FLUOR® 647-labeled aptamer, biotin-VEGF-A, and Streptavidin-Eu. The plate was covered with a plate seal and subsequently incubated in the dark for 1 hour at room temperature. The plate was read on a Biotek CYTATION™ 5 plate reader. Samples were excited at 330 nm and fluorescent values were collected at 665 nm. Data analysis was performed by subtracting the background value and plotting as percent inhibition, normalized to baseline in the absence of competitor. The values were fit by [Inhibitor] vs. response-Variable slope (four parameters) using GraphPad Prism Version 7.0 and then normalized to aptamer control to obtain an IC₅₀ relative to parent aptamer. Data is presented as log values of relative IC₅₀. […]
(In general: Time-resolved FRET reads energy transfer from a long-lived donor to a nearby acceptor.)

Series [3] has as its target T2, VEGF-A121. The experiment in a line: competition; TR-FRET; stem S1 mispaired. The settings on record: tags: glycan-biotinylated for SPR/FRET/AlphaLISA; Acro BioSystems, Biolegend; chain copies: 2 (stated). On the procedure:
as §3

Consider UAGGCCGCCUCCGCGCGGAGGGGUUUCAUUUAUCCCGUUUGGCGGCUUU (ssRNA, all G 2'-F; A,C,U 2'-OMe; 5' C6NH2; 3' idT), for which, in the series with VEGF-A165, the activity was above 50 % inhibition at 10 nM. UAGGCCGCCUCCGCGCGGAGGGGUUUCAUUUAUCCCGUUUGGCGGCUUU (ssRNA, 2'-F G; 2'-OMe A,C,U; 5' C6NH2; 3' idT) yielded an activity in the series with VEGF-A121 [1] above 50 % inhibition at 100 nM. Molecule UAGUCCGCCUCCGCGCGGAGGGGUUUCAUUAUCCCGUUUGGCGGCUUU (ssRNA, all G 2'-F; A,C,U 2'-OMe; 5' C6NH2; 3' idT) gave an activity with VEGF-A165 above 50 % inhibition at 10 nM.

On to UAGACCGCCUCCGCGCGGAGGGGUUUCAUUAUCCCGUUUGGCGGCUUU (ssRNA, all G 2'-F; A,C,U 2'-OMe; 5' C6NH2; 3' idT), for which, in the series with VEGF-A165, the activity is above 50 % inhibition at 10 nM.

For the molecule UAGGCCGCCUCCGCGCGGAGGGGUUUCAUUAUCCCGUUUGGCGGCCUU (ssRNA, 2'-F G; 2'-OMe A,C,U; 5' C6NH2; 3' idT), the activity in the series with VEGF-A121 [1] is above 50 % inhibition at 100 nM. Same read-out and setting: to UAGUCCGCCUCCGCGCGGAGGGGUUUCAUUAUCCCGUUUGGCGGCUUU (ssRNA, 2'-F G; 2'-OMe A,C,U; 5' C6NH2; 3' idT) belongs above 50 % inhibition at 100 nM.

Regarding UAGGCCGCCUCCGCGCGGAGGGGUUUCAUUAUCCCGUUUGGCGGCCUU (ssRNA, all G 2'-F; A,C,U 2'-OMe; 5' C6NH2; 3' idT), the activity with VEGF-A165 was above 50 % inhibition at 10 nM. For UAGGCCGCCUCCGCGCGGGGGGGUUUCAUUAUCCCGUUUGGCGGCUUU (ssRNA, all G 2'-F; A,C,U 2'-OMe; 5' C6NH2; 3' idT) [Aptamer 27], the binding signal with VEGF-A121 [2] was > 100 fold worse IC50 vs Aptamer 26.

For UAGACCGCCUCCGCGCGGAGGGGUUUCAUUAUCCCGUUUGGCGGCUUU (ssRNA, 2'-F G; 2'-OMe A,C,U; 5' C6NH2; 3' idT), in the series with VEGF-A121 [1], the activity was above 50 % inhibition at 100 nM.

Take AGGCCGCAUCCGCGCGGAGGGGUUUCAUUAUCCCGUUUAACCGCUU (ssRNA, all G 2'-F; A,C,U 2'-OMe; 5' C6NH2; 3' idT) [Aptamer 180]: in the series with VEGF-A121 [3], the binding signal is > 100 fold worse IC50 vs Aptamer 26.

With AGGCCGCAUCCGCGCGGAGGGGUUUCAUUAUCCCGUUUAACCGAUU (ssRNA, all G 2'-F; A,C,U 2'-OMe; 5' C6NH2; 3' idT) [Aptamer 181], the binding signal with VEGF-A121 [3] was > 100 fold worse IC50 vs Aptamer 26.
